Laboratory results taken from PMC6555819, “Comprehensive study of nuclear receptor DNA binding provides a revised framework for understanding receptor specificity”.
Substitutions are numbered along the chain they refer to.

B1: NRC3_random_hg19_287_o1 (dsDNA)
DNA 1: GCTCACTCAGAAGAGCAGAGCGACAGTGAATCTGAGGCGATTGACAGCGTAGAATGAAGG
DNA 2: CCTTCATTCTACGCTGTCAATCGCCTCAGATTCACTGTCGCTCTGCTCTTCTGAGTGAGC
B2: NRC3_random_hg19_258_o1 (dsDNA)
DNA 1: GCGTAAGATGGCAGGTGCCCAGAGCTAAGCTTTGATGCGATTGACAGCGTAGAATGAAGG
DNA 2: CCTTCATTCTACGCTGTCAATCGCATCAAAGCTTAGCTCTGGGCACCTGCCATCTTACGC
B3: NRC3_random_hg19_12_o1 (dsDNA)
DNA 1: GCTTCCAGAATCAGACAATCACTGGGCTTGAACCAGGCGATTGACAGCGTAGAATGAAGG
DNA 2: CCTTCATTCTACGCTGTCAATCGCCTGGTTCAAGCCCAGTGATTGTCTGATTCTGGAAGC
B4: NRC3_random_hg19_29_o1 (dsDNA)
DNA 1: GCGGTTGAATGCCCAGATAGTACACACACCAAGCTTGCGATTGACAGCGTAGAATGAAGG
DNA 2: CCTTCATTCTACGCTGTCAATCGCAAGCTTGGTGTGTGTACTATCTGGGCATTCAACCGC
B5: NRC3_wobSeed122_DR5_C24G_o1 (dsDNA)
DNA 1: GCGCTAGTTGGTCAGTAAAAGGTGACACACCGGTCGGCGATTGACAGCGTAGAATGAAGG
DNA 2: CCTTCATTCTACGCTGTCAATCGCCGACCGGTGTGTCACCTTTTACTGACCAACTAGCGC
B6: NRC3_random_hg19_448_o1 (dsDNA)
DNA 1: GCAGAAGAAGACCAAAGTATTCCCTCACTGCCTATGGCGATTGACAGCGTAGAATGAAGG
DNA 2: CCTTCATTCTACGCTGTCAATCGCCATAGGCAGTGAGGGAATACTTTGGTCTTCTTCTGC
B7: NRC3_random_hg19_124_o1 (dsDNA)
DNA 1: GCTCAGTTCCTCTGCAGCCAACCAGTCTTGGTGCCTGCGATTGACAGCGTAGAATGAAGG
DNA 2: CCTTCATTCTACGCTGTCAATCGCAGGCACCAAGACTGGTTGGCTGCAGAGGAACTGAGC
B8: NRC3_random_hg19_50_o1 (dsDNA)
DNA 1: GCTGAAGAGTTTCTAACTCTTTGTTCTTGAATCAAAGCGATTGACAGCGTAGAATGAAGG
DNA 2: CCTTCATTCTACGCTGTCAATCGCTTTGATTCAAGAACAAAGAGTTAGAAACTCTTCAGC
B9: NRC3_random_hg19_424_o1 (dsDNA)
DNA 1: GCGCCTTCTCTACAGGGCATACAGACTGACATTGAGGCGATTGACAGCGTAGAATGAAGG
DNA 2: CCTTCATTCTACGCTGTCAATCGCCTCAATGTCAGTCTGTATGCCCTGTAGAGAAGGCGC
B10: NRC3_random_hg19_143_o1 (dsDNA)
DNA 1: GCCAAGAATCAGACTCTTAAGTAGATGCCTGTAGCTGCGATTGACAGCGTAGAATGAAGG
DNA 2: CCTTCATTCTACGCTGTCAATCGCAGCTACAGGCATCTACTTAAGAGTCTGATTCTTGGC
B11: NRC3_wobSeed26_DR1_A14T_o1 (dsDNA)
DNA 1: GCTCTAGTTGGTCTAAGGTCACACACTCGAAATGCGGCGATTGACAGCGTAGAATGAAGG
DNA 2: CCTTCATTCTACGCTGTCAATCGCCGCATTTCGAGTGTGTGACCTTAGACCAACTAGAGC
B12: NRC3_wobSeed97_DR4_G16T_o1 (dsDNA)
DNA 1: GCCAAACTAGGTCACTAAAGGTCAAAGTCGAATGACGCGATTGACAGCGTAGAATGAAGG
DNA 2: CCTTCATTCTACGCTGTCAATCGCGTCATTCGACTTTGACCTTTAGTGACCTAGTTTGGC
B13: NRC3_random_hg19_334_o1 (dsDNA)
DNA 1: GCTGCTGACTTGCTGGTTAGAGGGAACACATTCCCAGCGATTGACAGCGTAGAATGAAGG
DNA 2: CCTTCATTCTACGCTGTCAATCGCTGGGAATGTGTTCCCTCTAACCAGCAAGTCAGCAGC
B14: NRC3_wobSeed116_DR4_A21T_o1 (dsDNA)
DNA 1: GCAGAATGAGGTTACCAAAGTTCAGGGAAACGCTTGGCGATTGACAGCGTAGAATGAAGG
DNA 2: CCTTCATTCTACGCTGTCAATCGCCAAGCGTTTCCCTGAACTTTGGTAACCTCATTCTGC
B15: NRC3_random_hg19_378_o1 (dsDNA)
DNA 1: GCATCATCTTGCGTATGTTGATTGATGTCTCATGTGGCGATTGACAGCGTAGAATGAAGG
DNA 2: CCTTCATTCTACGCTGTCAATCGCCACATGAGACATCAATCAACATACGCAAGATGATGC
B16: NRC3_wobSeed98_DR4_A28C_o1 (dsDNA)
DNA 1: GCACTAGTTGGTCAGCTGAGGTCACACCCAATTCGGGCGATTGACAGCGTAGAATGAAGG
DNA 2: CCTTCATTCTACGCTGTCAATCGCCCGAATTGGGTGTGACCTCAGCTGACCAACTAGTGC
B17: NRC3_wobSeed120_DR4_G16T_o1 (dsDNA)
DNA 1: GCCCGAGTAGGTTACTAGGGGGCATTCAGTGCGAATGCGATTGACAGCGTAGAATGAAGG
DNA 2: CCTTCATTCTACGCTGTCAATCGCATTCGCACTGAATGCCCCCTAGTAACCTACTCGGGC
B18: NRC3_wobSeed120_DR4_T8G_o1 (dsDNA)
DNA 1: B17 DNA 1 with T8G, T16G
DNA 2: B17 DNA 2 with A45C, A53C
B19: NRC3_wobSeed113_DR4_T12A_o1 (dsDNA)
DNA 1: GCATATGTAGGATAGCTGGGGTCATTCAGACTAGGCGCGATTGACAGCGTAGAATGAAGG
DNA 2: CCTTCATTCTACGCTGTCAATCGCGCCTAGTCTGAATGACCCCAGCTATCCTACATATGC
B20: NRC3_wobSeed101_DR4_C13T_o1 (dsDNA)
DNA 1: GCCCTTACGGGTTACTCCAGGTTATAGCATCGGAGTGCGATTGACAGCGTAGAATGAAGG
DNA 2: CCTTCATTCTACGCTGTCAATCGCACTCCGATGCTATAACCTGGAGTAACCCGTAAGGGC
B21: NRC3_wobSeed109_DR4_A16T_o1 (dsDNA)
DNA 1: GCCGTCCAAGGTCATTGGAGGTCAGTGAAGACAGATGCGATTGACAGCGTAGAATGAAGG
DNA 2: CCTTCATTCTACGCTGTCAATCGCATCTGTCTTCACTGACCTCCAATGACCTTGGACGGC

Biological target: RXRa (Homo sapiens, UniProt P19793)
Assay: no ligand; PBM; 180 nM; PBS pH 7.4, 2% milk, 0.02% Triton X-100, 1 mM DTT, BSA, 0.4 mg/ml salmon testes DNA
Conditions: tags: His cleaved; chain copies: 2; label: surface-attached array probe

Chain of RXRa (P19793 whole entry): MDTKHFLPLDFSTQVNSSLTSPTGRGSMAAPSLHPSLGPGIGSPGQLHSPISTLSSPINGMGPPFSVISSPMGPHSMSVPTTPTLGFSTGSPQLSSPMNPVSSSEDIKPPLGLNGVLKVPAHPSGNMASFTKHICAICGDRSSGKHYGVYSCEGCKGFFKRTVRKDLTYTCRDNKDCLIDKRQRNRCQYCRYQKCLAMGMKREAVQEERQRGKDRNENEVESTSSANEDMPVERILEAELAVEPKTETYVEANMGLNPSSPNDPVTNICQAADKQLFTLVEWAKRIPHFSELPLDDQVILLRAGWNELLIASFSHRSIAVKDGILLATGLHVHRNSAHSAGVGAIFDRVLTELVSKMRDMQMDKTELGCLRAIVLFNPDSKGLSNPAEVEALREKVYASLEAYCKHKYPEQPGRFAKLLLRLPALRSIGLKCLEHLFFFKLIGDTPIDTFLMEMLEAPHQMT

Row | Binder | binding signal
1 | B1 | 0.27 PBM z-score against 500 random probes
2 | B2 | -0.61 PBM z-score against 500 random probes
3 | B3 | -0.01 PBM z-score against 500 random probes

Biological target: RARb:RXRa (Homo sapiens, UniProt P10826;P19793 full;full)
Assay: no ligand; PBM; 270 nM : 90 nM RXRa; PBS pH 7.4, 2% milk, 0.02% Triton X-100, 1 mM DTT, BSA, 0.4 mg/ml salmon testes DNA
Conditions: tags: His kept;His cleaved; copies: 1;1; label: surface-attached array probe
Method in brief: (§1)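 Probes were double-stranded and carried 34-nt variable regions with direct-repeat seeds, single-nucleotide variants, half-site ablations and random human genomic background sequences, printed on custom Agilent 4×180K protein-binding microarrays. Arrays were incubated 1 h with ligand-free nuclear receptor dimers in PBS pH 7.4, 2% milk, 0.02% Triton X-100, 1 mM DTT, 0.2 mg/mL BSA and 0.4 mg/ml salmon testes DNA. Antibodies against each partner (one per run) detected binding, and scanned fluorescence was regression-normalized. Binding z-scores use the random background probes as reference.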

Chain of RARb:RXRa (P10826 whole entry, chain 1 of 2): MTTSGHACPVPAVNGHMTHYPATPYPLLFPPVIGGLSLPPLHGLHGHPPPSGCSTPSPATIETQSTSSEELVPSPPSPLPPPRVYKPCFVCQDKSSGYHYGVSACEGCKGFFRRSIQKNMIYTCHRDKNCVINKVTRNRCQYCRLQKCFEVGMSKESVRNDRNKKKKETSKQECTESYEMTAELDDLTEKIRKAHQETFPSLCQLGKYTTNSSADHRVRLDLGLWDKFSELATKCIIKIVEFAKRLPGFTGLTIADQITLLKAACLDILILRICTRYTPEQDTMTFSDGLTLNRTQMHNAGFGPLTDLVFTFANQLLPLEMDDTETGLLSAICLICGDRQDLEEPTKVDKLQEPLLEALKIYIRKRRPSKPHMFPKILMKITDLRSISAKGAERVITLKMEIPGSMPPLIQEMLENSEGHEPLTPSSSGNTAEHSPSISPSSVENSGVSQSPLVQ
Chain of RARb:RXRa (P19793 whole entry, chain 2 of 2): as the sequence (P19793 whole entry) above

Row | Binder | binding signal
4 | B1 | -0.16 PBM z-score against 500 random probes
5 | B4 | -0.14 PBM z-score against 500 random probes
6 | B3 | -0.1 PBM z-score against 500 random probes

Biological target: VDR:RXRa (Homo sapiens, UniProt P11473;P19793 full;full)
Assay: as above
Conditions: tags: His kept;His cleaved; copies: 1;1; label: surface-attached array probe
Method in brief: as §1

Chain of VDR:RXRa (P11473 whole entry, chain 1 of 2): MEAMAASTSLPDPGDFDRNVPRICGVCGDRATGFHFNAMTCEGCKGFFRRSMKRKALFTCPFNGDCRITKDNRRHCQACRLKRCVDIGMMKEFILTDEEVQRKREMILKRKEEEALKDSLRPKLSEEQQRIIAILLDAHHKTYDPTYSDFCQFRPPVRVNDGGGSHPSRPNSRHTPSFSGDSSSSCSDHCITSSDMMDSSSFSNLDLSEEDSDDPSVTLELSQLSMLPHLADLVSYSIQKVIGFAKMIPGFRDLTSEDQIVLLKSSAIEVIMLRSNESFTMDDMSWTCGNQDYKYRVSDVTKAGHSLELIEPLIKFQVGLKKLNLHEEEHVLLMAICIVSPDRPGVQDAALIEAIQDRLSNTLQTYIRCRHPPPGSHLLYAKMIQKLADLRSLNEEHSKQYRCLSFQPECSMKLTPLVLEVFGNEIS
Chain of VDR:RXRa (P19793 whole entry, chain 2 of 2): as the sequence (P19793 whole entry) above

Row | Binder | binding signal
7 | B5 | 0.14 PBM z-score against 500 random probes
8 | B6 | -0.71 PBM z-score against 500 random probes
9 | B7 | -0.13 PBM z-score against 500 random probes
10 | B8 | -0.07 PBM z-score against 500 random probes
11 | B9 | -0.21 PBM z-score against 500 random probes
12 | B10 | -0.44 PBM z-score against 500 random probes
13 | B11 | 4.12 PBM z-score against 500 random probes

Biological target: LXRa:RXRa (Homo sapiens, UniProt Q13133;P19793 full;full)
Assay: as above
Conditions: tags: His kept;His cleaved; copies: 1;1; label: surface-attached array probe
Method in brief: as §1

Chain of LXRa:RXRa (Q13133 whole entry, chain 1 of 2): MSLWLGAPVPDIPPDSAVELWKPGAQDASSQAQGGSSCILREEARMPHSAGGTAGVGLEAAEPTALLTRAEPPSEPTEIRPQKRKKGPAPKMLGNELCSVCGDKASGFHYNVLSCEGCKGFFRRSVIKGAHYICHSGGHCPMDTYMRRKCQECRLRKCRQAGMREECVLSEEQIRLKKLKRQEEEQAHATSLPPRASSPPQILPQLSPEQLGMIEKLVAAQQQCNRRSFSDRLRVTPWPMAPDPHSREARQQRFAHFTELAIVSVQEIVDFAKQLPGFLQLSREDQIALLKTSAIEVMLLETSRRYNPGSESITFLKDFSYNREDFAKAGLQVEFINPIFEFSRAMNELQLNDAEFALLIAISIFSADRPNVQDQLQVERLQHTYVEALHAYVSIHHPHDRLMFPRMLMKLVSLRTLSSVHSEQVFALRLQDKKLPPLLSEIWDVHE
Chain of LXRa:RXRa (P19793 whole entry, chain 2 of 2): as the sequence (P19793 whole entry) above

Row | Binder | binding signal
14 | B1 | 0.05 PBM z-score against 500 random probes
15 | B5 | 0.28 PBM z-score against 500 random probes
16 | B2 | -1 PBM z-score against 500 random probes
17 | B12 | 9.5 PBM z-score against 500 random probes
18 | B6 | -0.67 PBM z-score against 500 random probes
19 | B7 | 0.33 PBM z-score against 500 random probes
20 | B13 | -0.52 PBM z-score against 500 random probes
21 | B14 | 8.81 PBM z-score against 500 random probes
22 | B8 | -0.55 PBM z-score against 500 random probes
23 | B15 | -0.34 PBM z-score against 500 random probes
24 | B9 | 0.42 PBM z-score against 500 random probes
25 | B10 | -0.64 PBM z-score against 500 random probes
26 | B4 | -0.08 PBM z-score against 500 random probes
27 | B16 | 3.12 PBM z-score against 500 random probes
28 | B17 | 8.51 PBM z-score against 500 random probes
29 | B18 | 8.32 PBM z-score against 500 random probes
30 | B19 | 3.41 PBM z-score against 500 random probes
31 | B20 | 8.39 PBM z-score against 500 random probes
32 | B3 | -0.13 PBM z-score against 500 random probes
33 | B21 | 8.57 PBM z-score against 500 random probes
34 | B11 | 4.12 PBM z-score against 500 random probes

Biological target: PPARa:RXRa (Homo sapiens, UniProt Q07869;P19793 full;full)
Assay: as above
Conditions: tags: GST kept;His cleaved; copies: 1;1; label: surface-attached array probe
Method in brief: as §1

Chain of PPARa:RXRa (Q07869 whole entry, chain 1 of 2): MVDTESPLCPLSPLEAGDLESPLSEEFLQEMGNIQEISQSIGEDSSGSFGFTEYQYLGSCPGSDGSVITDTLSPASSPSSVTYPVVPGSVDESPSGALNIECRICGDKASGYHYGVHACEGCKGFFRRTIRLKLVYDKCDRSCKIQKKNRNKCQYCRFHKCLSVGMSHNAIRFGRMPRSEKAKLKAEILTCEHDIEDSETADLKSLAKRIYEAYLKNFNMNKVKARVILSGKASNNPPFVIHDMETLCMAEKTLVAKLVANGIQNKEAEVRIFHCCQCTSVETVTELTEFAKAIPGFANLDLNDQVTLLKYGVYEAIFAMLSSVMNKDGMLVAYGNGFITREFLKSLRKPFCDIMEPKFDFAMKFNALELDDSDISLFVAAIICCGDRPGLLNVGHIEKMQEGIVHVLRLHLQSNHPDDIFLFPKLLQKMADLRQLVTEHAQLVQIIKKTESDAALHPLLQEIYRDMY
Chain of PPARa:RXRa (P19793 whole entry, chain 2 of 2): as the sequence (P19793 whole entry) above

Row | Binder | binding signal
35 | B6 | -0.65 PBM z-score against 500 random probes
36 | B17 | 3.42 PBM z-score against 500 random probes

Biological target: LXRb:RXRa (Homo sapiens, UniProt P55055;P19793 full;full)
Assay: as above
Conditions: tags: His kept;His cleaved; copies: 1;1; label: surface-attached array probe
Method in brief: as §1

Chain of LXRb:RXRa (P55055 whole entry, chain 1 of 2): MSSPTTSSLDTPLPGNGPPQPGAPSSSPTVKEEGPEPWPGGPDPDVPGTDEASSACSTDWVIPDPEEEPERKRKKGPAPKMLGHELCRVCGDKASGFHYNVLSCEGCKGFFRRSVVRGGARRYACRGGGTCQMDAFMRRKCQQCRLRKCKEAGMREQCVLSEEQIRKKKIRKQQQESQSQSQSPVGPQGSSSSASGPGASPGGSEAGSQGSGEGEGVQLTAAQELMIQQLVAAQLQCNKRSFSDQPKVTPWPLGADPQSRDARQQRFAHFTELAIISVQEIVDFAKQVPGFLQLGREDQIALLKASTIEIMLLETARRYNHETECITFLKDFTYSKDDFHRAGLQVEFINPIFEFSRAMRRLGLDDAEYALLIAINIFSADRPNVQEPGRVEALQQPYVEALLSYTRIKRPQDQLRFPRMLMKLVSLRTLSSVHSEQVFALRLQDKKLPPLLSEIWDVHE
Chain of LXRb:RXRa (P19793 whole entry, chain 2 of 2): as the sequence (P19793 whole entry) above

Row | Binder | binding signal
37 | B12 | 8.55 PBM z-score against 500 random probes
38 | B13 | -0.46 PBM z-score against 500 random probes
39 | B14 | 6.78 PBM z-score against 500 random probes
40 | B15 | -0.13 PBM z-score against 500 random probes
41 | B4 | 0.12 PBM z-score against 500 random probes
42 | B16 | 3.3 PBM z-score against 500 random probes
43 | B17 | 7.83 PBM z-score against 500 random probes
44 | B18 | 7.6 PBM z-score against 500 random probes
45 | B19 | 3.83 PBM z-score against 500 random probes
46 | B20 | 6.25 PBM z-score against 500 random probes
47 | B21 | 7.27 PBM z-score against 500 random probes

Biological target: FXR:RXRa (Homo sapiens, UniProt Q96RI1;P19793 full;full)
Assay: as above
Conditions: tags: His kept;His cleaved; copies: 1;1; label: surface-attached array probe
Method in brief: as §1

Chain of FXR:RXRa (Q96RI1 whole entry, chain 1 of 2): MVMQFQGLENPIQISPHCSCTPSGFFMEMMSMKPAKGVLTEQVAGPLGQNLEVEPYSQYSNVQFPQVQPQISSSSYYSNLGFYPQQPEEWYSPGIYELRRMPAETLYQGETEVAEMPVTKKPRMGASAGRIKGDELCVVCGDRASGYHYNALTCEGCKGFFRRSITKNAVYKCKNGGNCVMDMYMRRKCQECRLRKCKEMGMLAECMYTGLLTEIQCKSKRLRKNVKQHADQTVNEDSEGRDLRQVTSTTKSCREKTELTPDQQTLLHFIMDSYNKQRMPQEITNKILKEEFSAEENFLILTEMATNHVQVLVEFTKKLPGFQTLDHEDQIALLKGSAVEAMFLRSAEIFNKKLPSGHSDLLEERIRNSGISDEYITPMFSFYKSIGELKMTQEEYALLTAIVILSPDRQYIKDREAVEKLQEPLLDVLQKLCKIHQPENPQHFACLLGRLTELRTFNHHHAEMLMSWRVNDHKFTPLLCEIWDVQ
Chain of FXR:RXRa (P19793 whole entry, chain 2 of 2): as the sequence (P19793 whole entry) above

Row | Binder | binding signal
48 | B3 | 0.11 PBM z-score against 500 random probes

Biological target: RARg:RXRa (Homo sapiens, UniProt P13631;P19793 full;full)
Assay: as above
Conditions: tags: His kept;His cleaved; copies: 1;1; label: surface-attached array probe
Method in brief: as §1

Chain of RARg:RXRa (P13631 whole entry, chain 1 of 2): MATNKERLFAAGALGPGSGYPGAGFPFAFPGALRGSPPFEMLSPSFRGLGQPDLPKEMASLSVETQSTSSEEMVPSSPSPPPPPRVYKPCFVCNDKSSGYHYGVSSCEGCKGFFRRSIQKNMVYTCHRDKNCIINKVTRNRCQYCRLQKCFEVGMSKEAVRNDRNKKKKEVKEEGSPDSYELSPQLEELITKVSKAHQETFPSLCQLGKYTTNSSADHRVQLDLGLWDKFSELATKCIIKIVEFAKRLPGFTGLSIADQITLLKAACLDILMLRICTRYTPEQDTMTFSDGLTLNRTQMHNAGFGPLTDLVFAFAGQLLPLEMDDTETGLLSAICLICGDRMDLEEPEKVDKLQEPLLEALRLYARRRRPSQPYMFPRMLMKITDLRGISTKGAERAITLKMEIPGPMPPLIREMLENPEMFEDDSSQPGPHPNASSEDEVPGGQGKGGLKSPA
Chain of RARg:RXRa (P19793 whole entry, chain 2 of 2): as the sequence (P19793 whole entry) above

Row | Binder | binding signal
49 | B2 | -0.94 PBM z-score against 500 random probes
50 | B15 | 0.26 PBM z-score against 500 random probes
51 | B10 | -0.43 PBM z-score against 500 random probes
